Reference: article PMC4390882 (Life, 2015)

Columns and labels:
[1] = target: T1, MtACK (Methanosarcina thermophila acetate kinase) (Methanosarcina thermophila, UniProt P38502, G239S); test: hydroxamate assay, A540; format: biochemical; conditions: saturating acetate when possible (max 1 M), MgCl2, 50 mM Tris pH 7.5, 300 mM hydroxylamine, 37 °C
T1 construct: gene ackA; full-length, N-terminal His6 tag (pET15b, pETack), expressed in E. coli BL21(DE3), HisTrap purified; tag removal not mentioned

[2] = target: T2, MtACK (Methanosarcina thermophila acetate kinase) (Methanosarcina thermophila, UniProt P38502, G239A); test: hydroxamate assay, A540; format: biochemical; conditions: saturating acetate when possible (max 1 M), MgCl2, 50 mM Tris pH 7.5, 300 mM hydroxylamine, 37 °C
T2 construct: gene ackA; full-length, N-terminal His6 tag (pET15b, pETack), expressed in E. coli BL21(DE3), HisTrap purified; tag removal not mentioned

[3] = target: T3, MtACK (Methanosarcina thermophila acetate kinase) (Methanosarcina thermophila, UniProt P38502, N211S); test: hydroxamate assay, A540; format: biochemical; conditions: saturating acetate when possible (max 1 M), MgCl2, 50 mM Tris pH 7.5, 300 mM hydroxylamine, 37 °C
T3 construct: gene ackA; full-length, N-terminal His6 tag (pET15b, pETack), expressed in E. coli BL21(DE3), HisTrap purified; tag removal not mentioned

[4] = target: T4, MtACK (Methanosarcina thermophila acetate kinase) (Methanosarcina thermophila, UniProt P38502, G331A); test: hydroxamate assay, A540; format: biochemical; conditions: saturating acetate when possible (max 1 M), MgCl2, 50 mM Tris pH 7.5, 300 mM hydroxylamine, 37 °C
T4 construct: gene ackA; full-length, N-terminal His6 tag (pET15b, pETack), expressed in E. coli BL21(DE3), HisTrap purified; tag removal not mentioned

[5] = target: T5, MtACK (Methanosarcina thermophila acetate kinase) (Methanosarcina thermophila, UniProt P38502, N211T); test: hydroxamate assay, A540; format: biochemical; conditions: saturating acetate when possible (max 1 M), MgCl2, 50 mM Tris pH 7.5, 300 mM hydroxylamine, 37 °C
T5 construct: gene ackA; full-length, N-terminal His6 tag (pET15b, pETack), expressed in E. coli BL21(DE3), HisTrap purified; tag removal not mentioned

[6] = target: T6, MtACK (Methanosarcina thermophila acetate kinase) (Methanosarcina thermophila, UniProt P38502, N211A); test: hydroxamate assay, A540; format: biochemical; conditions: saturating acetate when possible (max 1 M), MgCl2, 50 mM Tris pH 7.5, 300 mM hydroxylamine, 37 °C
T6 construct: gene ackA; full-length, N-terminal His6 tag (pET15b, pETack), expressed in E. coli BL21(DE3), HisTrap purified; tag removal not mentioned

[7] = target: T7, MtACK (Methanosarcina thermophila acetate kinase) (Methanosarcina thermophila, UniProt P38502, G331Q); test: hydroxamate assay, A540; format: biochemical; conditions: acetate not saturating (max 1 M), MgCl2, 50 mM Tris pH 7.5, 300 mM hydroxylamine, 37 °C
T7 construct: gene ackA; full-length, N-terminal His6 tag (pET15b, pETack), expressed in E. coli BL21(DE3), HisTrap purified; tag removal not mentioned

[8] = target: T8, MtACK (Methanosarcina thermophila acetate kinase) (Methanosarcina thermophila, UniProt P38502); test: hydroxamate assay, A540; format: biochemical; conditions: saturating acetate when possible (max 1 M), MgCl2, 50 mM Tris pH 7.5, 300 mM hydroxylamine, 37 °C
T8 construct: gene ackA; full-length, N-terminal His6 tag (pET15b, pETack), expressed in E. coli BL21(DE3), HisTrap purified; tag removal not mentioned

[9] = substrate: Nc1nc2c(ncn2[C@@H]2O[C@H](COP(=O)(O)OP(=O)(O)OP(=O)(O)O)[C@@H](O)[C@H]2O)c(=O)[nH]1; test: hydroxamate assay, A540; format: biochemical, Methanosarcina thermophila; conditions: saturating acetate when possible (max 1 M), MgCl2, 50 mM Tris pH 7.5, 300 mM hydroxylamine, 37 °C
[10] = substrate: Nc1ccn([C@@H]2O[C@H](COP(=O)(O)OP(=O)(O)OP(=O)(O)O)[C@@H](O)[C@H]2O)c(=O)n1; test: hydroxamate assay, A540; format: biochemical, Methanosarcina thermophila; conditions: saturating acetate when possible (max 1 M), MgCl2, 50 mM Tris pH 7.5, 300 mM hydroxylamine, 37 °C
[11] = substrate: CC(=O)O; test: purified protein; conditions: ATP constant at optimal concentration, MgCl2, 50 mM Tris pH 7.5, 300 mM hydroxylamine, 37 °C
[12] = substrate: O=P(O)(O)OP(=O)(O)OP(=O)(O)OC[C@H]1O[C@@H](n2cnc3c(O)ncnc32)[C@H](O)[C@@H]1O; test: hydroxamate assay, A540; format: biochemical, Methanosarcina thermophila; conditions: saturating acetate when possible (max 1 M), MgCl2, 50 mM Tris pH 7.5, 300 mM hydroxylamine, 37 °C
[13] = substrate: O=c1ccn([C@@H]2O[C@H](COP(=O)(O)OP(=O)(O)OP(=O)(O)O)[C@@H](O)[C@H]2O)c(=O)[nH]1; test: hydroxamate assay, A540; format: biochemical, Methanosarcina thermophila; conditions: saturating acetate when possible (max 1 M), MgCl2, 50 mM Tris pH 7.5, 300 mM hydroxylamine, 37 °C
[14] = substrate: Cc1cn([C@H]2C[C@H](O)[C@@H](COP(=O)(O)OP(=O)(O)OP(=O)(O)O)O2)c(=O)[nH]c1=O; test: hydroxamate assay, A540; format: biochemical, Methanosarcina thermophila; conditions: saturating acetate when possible (max 1 M), MgCl2, 50 mM Tris pH 7.5, 300 mM hydroxylamine, 37 °C

T5 sequence (P38502 whole entry N211T): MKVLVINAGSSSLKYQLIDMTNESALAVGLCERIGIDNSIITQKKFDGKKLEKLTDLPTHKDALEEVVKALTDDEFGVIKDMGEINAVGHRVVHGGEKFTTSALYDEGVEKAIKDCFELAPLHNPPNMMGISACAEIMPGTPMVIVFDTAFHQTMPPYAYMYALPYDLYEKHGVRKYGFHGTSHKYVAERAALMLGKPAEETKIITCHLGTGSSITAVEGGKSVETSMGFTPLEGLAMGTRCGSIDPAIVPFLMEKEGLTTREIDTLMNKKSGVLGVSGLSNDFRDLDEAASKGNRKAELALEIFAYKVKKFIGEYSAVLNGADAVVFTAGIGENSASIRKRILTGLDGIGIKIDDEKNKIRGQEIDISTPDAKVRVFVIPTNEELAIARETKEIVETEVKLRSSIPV
T2 sequence (P38502 whole entry G239A): as the sequence (P38502 whole entry N211T) above, with T211N, G239A counted along it
T1 sequence (P38502 whole entry G239S): as the sequence (P38502 whole entry N211T) above, with T211N, G239S counted along it
T3 sequence (P38502 whole entry N211S): as the sequence (P38502 whole entry N211T) above, with T211S counted along it
T7 sequence (P38502 whole entry G331Q): as the sequence (P38502 whole entry N211T) above, with T211N, G331Q counted along it
T6 sequence (P38502 whole entry N211A): as the sequence (P38502 whole entry N211T) above, with T211A counted along it

Molecule: Nc1ncnc2c1ncn2[C@@H]1O[C@H](COP(=O)(O)OP(=O)(O)OP(=O)(O)O)[C@@H](O)[C@H]1O [ATP]
- Km [1]: 1.8 ± 0.1 mM
- Km [2]: 1.7 ± 0.1 mM
- Km [3]: 6.8 ± 0.6 mM
- Km [4]: 10.2 ± 0.4 mM
- Km [5]: 7.1 ± 0.3 mM
- Km [6]: 5.9 ± 0.5 mM
- Km [7]: 18.4 ± 0.6 mM
- Km [8]: 4 ± 0.3 mM

B1: MtACK (Methanosarcina thermophila acetate kinase) (Methanosarcina thermophila; G331A) (protein)
chain: MKVLVINAGSSSLKYQLIDMTNESALAVGLCERIGIDNSIITQKKFDGKKLEKLTDLPTHKDALEEVVKALTDDEFGVIKDMGEINAVGHRVVHGGEKFTTSALYDEGVEKAIKDCFELAPLHNPPNMMGISACAEIMPGTPMVIVFDTAFHQTMPPYAYMYALPYDLYEKHGVRKYGFHGTSHKYVAERAALMLGKPAEETKIITCHLGNGSSITAVEGGKSVETSMGFTPLEGLAMGTRCGSIDPAIVPFLMEKEGLTTREIDTLMNKKSGVLGVSGLSNDFRDLDEAASKGNRKAELALEIFAYKVKKFIGEYSAVLNGADAVVFTAAIGENSASIRKRILTGLDGIGIKIDDEKNKIRGQEIDISTPDAKVRVFVIPTNEELAIARETKEIVETEVKLRSSIPV
notes: full-length, N-terminal His6 tag (pET15b, pETack), expressed in E. coli BL21(DE3), HisTrap purified; tag removal not mentioned
- Km [9]: 5.3 ± 0.2 mM
- kcat [9]: 67 ± 1.0 s⁻¹
- kcat/Km [9]: 12600 ± 400 M⁻¹ s⁻¹
- Km [10]: 15.7 ± 1.6 mM
- kcat [10]: 17 ± 0.8 s⁻¹
- kcat/Km [10]: 1100 ± 70 M⁻¹ s⁻¹

B2: MtACK (Methanosarcina thermophila acetate kinase) (Methanosarcina thermophila) (protein)
chain: MKVLVINAGSSSLKYQLIDMTNESALAVGLCERIGIDNSIITQKKFDGKKLEKLTDLPTHKDALEEVVKALTDDEFGVIKDMGEINAVGHRVVHGGEKFTTSALYDEGVEKAIKDCFELAPLHNPPNMMGISACAEIMPGTPMVIVFDTAFHQTMPPYAYMYALPYDLYEKHGVRKYGFHGTSHKYVAERAALMLGKPAEETKIITCHLGNGSSITAVEGGKSVETSMGFTPLEGLAMGTRCGSIDPAIVPFLMEKEGLTTREIDTLMNKKSGVLGVSGLSNDFRDLDEAASKGNRKAELALEIFAYKVKKFIGEYSAVLNGADAVVFTAGIGENSASIRKRILTGLDGIGIKIDDEKNKIRGQEIDISTPDAKVRVFVIPTNEELAIARETKEIVETEVKLRSSIPV
notes: as for B1
- Km [11]: 14.3 ± 0.5 mM
- Km [12]: 4.7 ± 0.2 mM
- kcat [12]: 742 ± 10 s⁻¹
- kcat/Km [12]: 158000 ± 5000 M⁻¹ s⁻¹
- Km [9]: 7.2 ± 0.9 mM
- kcat [9]: 571 ± 22 s⁻¹
- kcat/Km [9]: 80000 ± 7000 M⁻¹ s⁻¹
- Km [13]: 2.7 ± 0.3 mM
- kcat [13]: 415 ± 19 s⁻¹
- kcat/Km [13]: 152000 ± 7000 M⁻¹ s⁻¹
- Km [10]: 3.2 ± 0.4 mM
- kcat [10]: 460 ± 28 s⁻¹
- kcat/Km [10]: 148000 ± 13000 M⁻¹ s⁻¹
- Km [14]: 2.7 ± 0.1 mM
- kcat [14]: 540 ± 9 s⁻¹
- kcat/Km [14]: 202000 ± 2000 M⁻¹ s⁻¹
